Measurements as given in the DeepSol protein solubility set.

Assay: soluble on expression in E. coli; label from the status in PepcDB or PDB records
With “MLSAWFSGKYSVLKDENGYVFLDRDGDRFRHILNYLRCGTVHIGEDIRLLGEILEEAEYFGLQSLAQQLKEALLQCRVKQEEKESSVCGRMNNEDNLFHPMFEPLDGFSSSQTSQGEPLLTLLPSSQEFRLDEDF” the “soluble on expression in E. coli” value was “soluble”. For “MLSERMLKALNDQLNRELYSAYLYFAMAAYFEDLGLEGFANWMKAQAEEEIGHALRFYNYIYDRNGRVELDEIPKPPKEWESPLKAFEAAYEHEKFISKSIYELAALAEEEKDYSTRAFLEWFINEQVEEEASVKKILDKLKFAKDSPQILFMLDKELSARAPKLPGLLMQGGE”, the “soluble on expression in E. coli” value was “soluble”. In the case of “MLSFAPYRFSQVLEHQCTRNGSVLIRHTEEFTSKTCSRCGHIHYSLGGQKIFKCSNCGNHLPRDWNGALGNFLKALWDTTLEHHHHHH”, the “soluble on expression in E. coli” value is reported as “not soluble”. With “MLSHMVLTRQDIGRAASYYEDGADDYYAKDGDASEWQGKGAEELGLSGEVDSKRFRELLAGNIGEGHRIMRSATRQDSKERIGLDLTFSAPKSVSLQALVAGDAEIIKAHDRAVARTLEQAEARAQARQKIQGKTRIETTGNLVIGKFRHETSRERDPQLHTHAVILNMTKRSDGQWRALKNDEIVKATRYLGAVYNAELAHELQKLGYQLRYGKDGNFDLAHIDRQQIEGFSKRTEQIAEWYAARGLDPNSVSLEQKQAAKVLSRAKKTSVDREALRAEWQATAKELGIDFS” the “soluble on expression in E. coli” value was “soluble”. For “MLSNQLHFAKPTARTPLVVLVHGLLGSGADWQPVLSHLARTQCAALTLDLPGHGTNPERHCDNFAEAVEMIEQTVQAHVTSEVPVILVGYSLGGRLIMHGLAQGAFSRLNLRGAIIEGGHFGLQENEEKAARWQHDQQWAQRFSQQPIEHVLSDWYQQAVFSSLNHEQRQTLIAQRSANLGSSVAHMLLATSLAKQPYLLPALQALKLPIHYVCGEQDSKFQQLAESSGLSYSQVAQAGHNVHHEQPQAFAKIVQAMIHSIID”, the “soluble on expression in E. coli” value was “soluble”. In the case of “MLSRRGKMKRIKVLRNGPYLVEGSVPLYEEVIVTDEEGHTREFVERRQFPLKERYVLCRCGESGNKPYCDGTHIRTGFDGTETASLEPYIERARVFRAGDLELTDVPELCDHSRFCLRAGGIRELLRKGDRESIQIAIEEAMICPSGRLVLWDRKTGKPYERDYEKSIVVIHDKQKRCEGPLWVRGGIPIESADGREYEVRNRVTLCRCGLSENKPFCDGSHWMTAEEKLEFKRKWGIELEHHHHHH”, the “soluble on expression in E. coli” value is reported as “not soluble”. In the case of “MLSTTTIGFPRIGNQRQLKFAMESYFKGDSGEAELLAVAHKVQSDAWALQKAAGIAVIGLDGTLYDQVLDTITWLGAIPPRFKHLSGLQRYYAMARGGAALDMSKFFDTNYHYLVPELGPDVLGPATAAGAPLQPDFSGPLDKLARGQAVVGRERAVPILIGPVTFVSLSRGCELPLDQAVARLLPTYCALLQQLAAAGAPEVQLHEPVLATSEGAGMRAEFETAYAQMAQAAGSVPLHLVTYYDDLGAAYPWAVQLPVAAVTLDFLGPPGAAVPSQTLALLQQHGFPADKRLGAGVVDGRSVWKDDGTAVALLRALLDTGAVSSDRLVVTSSAPLQHLPYDLGLELEAPKTPEAEPHLPPALAARLGFAKQKVEEIVSVARLAASPAAAAAAAGHGAVVQLQRLQQGKGVEDHTADIPAEWFSRPKPYDVRREQQLQLPAFPTTTIGSFPQTAEVRRLRQQLKSGRLTQAEYEGLIAGHIAHAVGVQEALGIDVLVHGEAERTDMVEYFGMQLGGMLFTRAGWVQSYGSRCVRPPLVVDDITYRGPMTCWEYKVASAYTRKPVKGMLTGPVTILNWSFPRKDISRAAQAMQLGLALRQEVAALEAAGCTIIQVDDPALREGLPLKRERWASYLSWAVDAFRLCTGVAAAGTQVVTHLCYSDFQDILPAIDRMDADVLTIENSRSDNAMMAALAAAGYGRDIGPGVYDVHSPVVPSVEFIKSRIRSFVDSGILSGRYDRIWVNPDCGLKTRGWPETIAALRNMVEAAAQARAELQLAGGAAVAPVAGGVEAAGKGAALGAAAGTSRCVDCCH”, the “soluble on expression in E. coli” value is reported as “not soluble”. For “MLTFVSPVFGAPKKRKWFSKLSGKQLCCFRCVSCLQVEQPSRSHPNYWRNIAREVNKTLKEHSLEANNPINVTDEDSSVFVDTTTDEREEGGPTFIQQSSRVQLDSAEISHSNSMTTDSHSLYQNNSPNSTGMEEEPSDYSVQFSTSWNPNTSWLQFPDLVESADIRRKTQEISKHQKEDVFKYYIDSENNLRPFHDAISPMHIFSKESETQTVSEPSAWENWHQLSQKGNEDSSSLDESLDDEWSEIDRWRPVAVELEGYNPKLTEDTSEEVRIEKNKLSKRREAVAWQKWFSTQQYNLSSELWERRIGVTGKDCDKNTSIYKQWLADMEQGLEP”, the “soluble on expression in E. coli” value was “not soluble”. For “MLTISNQVQLADWEIELTAIRAQGAGGQNVNKVSSAIHLRFDISRSTLPAFYKERLLKMRDHRITKEGIIIIKAQQFRTQEKNREDALDRLKQLIQSATETQKARKETKPTRSSQHKRMDKKSQRGQTKSMRKKVDYLEHHHHHH”, the “soluble on expression in E. coli” value was “soluble”. With “MLTLTAGKKAAMDRLSTQEGIISALAIDQRGALKKMIKALDVEPTDAQIETFKELVSKELTPYASAILLDPEYGLPAAKARDTEAGLLLAYEKTGYDATTPGRLPDLLADWSVLRLKEEGADAIKFLLYYDVDEDPEINHQKHVFIERLGSECAEEDLPFYLELVSYDAQIADATSLEYAKVKPHKVNEMMKEFSKPQYKVDVLKVEVPVNMNFVEGFAPAETAYTKEEAANYFLEQSQATDLPFIFLSAGVSTELFQETLRFAKEAGSTFNGVLCGRATWKNGVKPFVEAGETAACDWLKTEGRENIESLNEVIAATASSWHAKVQVNEG” the “soluble on expression in E. coli” value was “not soluble”. In the case of “MLTNCASKTLAAVRANIRAIATSSARASDNLFVHRDTPEDNPNIPFEFTAENKKRVEAILSIYPEGHKRGAMIPLLDLAQRQYGWLPISAMHKVAEILQLPNMRVYEVATFYTMFMRKPTGKYHIQVCTTTPCWLRGSDDILETCKKQLGIGVGDTTKDRKFTISEVECLGACVNAPMVAINDDYYEDLTSKDMQDILNDLKADKISPPGPRNGRFASEPKGEPTSLSEEPKGPGFGLQAGL”, the “soluble on expression in E. coli” value is reported as “not soluble”. In the case of “MLTVKQIEAAKPKEKPYRLLDGNGLYLYVPVSGKKVWQLRYKIDGKEKILTVGKYPLMTLQEARDKAWTARKDISVGIDPVKAKKASSNNNSFSAIYKEWYEHKKQVWSVGYATELAKMFDDDILPIIGGLEIQDIEPMQLLEVIRRFEDRGAMERANKARRRCGEVFRYAIVTGRAKYNPAPDLADAMKGYRKKNFPFLPADQIPAFNKALATFSGSIVSLIATKVLRYTALRTKELRSMLWKNVDFENRIITIDASVMKGRKIHVVPMSDQVVELLTTLSSITKPVSEFVFAGRNDKKKPICENAVLLVIKQIGYEGLESGHGFRHEFSTIMNEHEWPADAIEVQLAHANGGSVRGIYNHAQYLDKRREMMQWWADWLDEKVE”, the “soluble on expression in E. coli” value is reported as “soluble”. For “MLVNGALSTTGSFGQTVKYLQPHYNLVLFDLPFSGQSRAHNPDEMIVSKEDEVQILLQLIDLYQVNYLLSVSWGGVSALLALAQCPASVEKAIISSFSPVLNEPMLDYIDKAQVYLAAREKRKIGSLLNDTVGKHLPRLFKLYNYKHLIGLAEHEYGQIDFHISQIRTLSASNYVERFSSIKIPVLFINGEKDEYTTVEDARMFSNYIAKSSFNVVPDTGHFLDLESKAAWHHSQKTALSFLGT”, the “soluble on expression in E. coli” value was “not soluble”. For “MLWQQKSFTEQTEQGTLYIVPTPIGNLEDMTFRAVRTLQEADVIAAEDTRQTKKLLAHFGIHTPLVSYHEHNKYASGRQLVEWLKEGKTVALVSDAGMPGISDPGYELIAAALAERCRVVPLPGANAALTALVASGLPTDRFLFVGFLKRAKKEKKEQLLSLKTAAETLIFYEAPHRLKETLALMYDIFGNRRIALGRELTKRFEEFIRGDLSDAVAWAEEHDIRGEFCLIVEGARDGNKQEQEGEEWWQPLSLVEHVDYYIREHSLSVKEAVKQAASDRNMSKRDVYRQYHQQQEEEKKEFL”, the “soluble on expression in E. coli” value was “not soluble”. For “MMDCRLGCGACCIAPSISSPIPGMPNGKPAGVRCVQLNEDNLCQLFGRPERPKVCHDFKACPVVCGKTNQQALANLTELERLTLEHHHHHH”, the “soluble on expression in E. coli” value was “not soluble”. In the case of “MMHGGFAMIIDQYWGKYFGDSADSQRLAQYLAGKNREVLTTSEIFQDFQLAQLSGNYTQASLDGAGWHFDSAFQFVIDLAVLVLESKKVGRFSIARIGGPEDRFMRIDAATDELLPITMALKHYALAPEDYLFSHGIDVDDWYELGNLCEEIRAQLEA”, the “soluble on expression in E. coli” value is reported as “not soluble”. With “MMHISVGATEMSWLSSLKSVFSPSQEVKEDDVQTILQSYSLENSSFVLKDRITQINVEGRILQLTIKTFPEEADHLQQIHDELADALQKAGIQELNLHVIQQKTAPRTEPKSSSSTTSSSSHLPPVVDASASPTPDPNNPPIQKKAPIQSEVPAHPRIKNVILVSSGKGGVGKSTTTVNLALALQKQGLKVGVLDADIYGPSIPTMLGNAGRTPKIENENFVPLDAYGLAVLSIGHLTGDNNTPVAWRGPKATGALMQLFNQTLWPDLDVLVIDMPPGTGDIQLTLAQRIPVTGALIVTTPQNVALLDASKGIELFNRVGIPVVGVIENMSTHICSNCGFEEQIFGVGGGDKLSEQYDIPLLGRLPLNAQIRENADKGQPSVIAQDTAAESYQMIAQALWTRVEQLPQRARDDKRIFLEHHHHHH” the “soluble on expression in E. coli” value was “not soluble”. With “MMIDPELRPAFLPAGKLRAAINLGNPILAGTDAAGQAVGVSVDLAREFARRLNAGIELRVFDTAGQSVDAVTREEADIGFFAIDPARGAGIAFTGPYVLIEGAYLVRDDSPLQANEDVDRAGKRVTVGKGSAYDLHLTRALQHAEIVRAASSQAVVDTFLARRLDVAAGVKQQLQADARRVGGVRLLPGRFMVIRQAMGLPKARGDAAAACLDAFVESMKGNGFVAQALARHGLEHHHHHH” the “soluble on expression in E. coli” value was “not soluble”. For “MMISIFSLLASTAILVFANGQSNVKLEFVQAMWRHGERASQVDQYPIYEKDWIYGGGGLGELTAIGMGEMNELGWLIRKRYVTKLKFLTPKYASREVYFRSTNFNRTIISAQSLLYGLFPPSLYDVKNVDYPYSPLTWFPGFTFVPVHVDGPDQCAASQNCPCTRYDLLQGQMLTLPEVLPKYTQVVLLNRRVGGYYNMTSGLDSFTTYPDTWKCQRAYFNRTMYAKLPWYNEELYYQAQVTYAPVKGFLEGNFENPAVTSSGLDVGLEIKKVRSGVIINEVFNRANEKLNCAELGQNCTSYLNKLKFYGYSIHDNNVYGVLVALGIPQIANTLDGWPAYAAGIFMEFHRNTSTNERFFKVLYREGDDTPISDVTSQLPICNGATLCPLGALQTLAETLKPLPDITTLCKTPL”, the “soluble on expression in E. coli” value was “not soluble”. For “MMIVKRFILGEYSTNTYLVVSGDEGILIDVAENPSEVIDYILTNNIKLKSIYATHGHFDHVLGVTEVKKYFNVPFFLHRSDLDLLRRDERTKGIVPDGFIDEKSIIKIGNEELKVIETPGHTMGSVCYIFDDGIFTGDTLFNGSIGRYDLGGDKNLLKKSLNRLMELNDGLTVYPGHGFFTTLGYEKLTNPFLNGEFEW”, the “soluble on expression in E. coli” value was “soluble”. In the case of “MMKNFVCTTCGVQYAASVEEPVSCHICDEERQYVNPKGQSWTTLENLQTDDTYKNEIIKEENGLYSITTKPGFAIGQTAFVVKTESYRLLWDCITYLDETTITKIKELGGLDAIALSHPHYYSTQVEWAETFDVPIYIHEDDKEWVMRPSSRIIYWSGESLQLADGITVHRLGGHFSGGSVLHWEEGNDGKGILLTGDIIQVVADERWVSFMYSYPNLIPLPARKVEEMVNRVKPLQFNRLYNAFHRVVKENANEAVERSAERYIKAIEGKLFHT”, the “soluble on expression in E. coli” value is reported as “not soluble”. With “MMKNMARKNQKAPWEEEEEIIWVSRTELKNDMLALQKLGEELVELKPSALAKFPLPEDLAEAIKDAQRFKNEARRRQLQYIGKLMRHIDPEPLQAALDKLRNKHSQTTALLHKLEQLRDRIVAEGDSAIEVAMEQYPEADRQRLRLLARQASKEKAGNKPPKSSREIFQLLKEAMLAKQEIEEESEDDLDSAE” the “soluble on expression in E. coli” value was “not soluble”.
